# In patent publication US7820795B2, “Lactobacillus fermentum N-desoxyribosyl transferases and the use thereof for enzymatic synthesis of 2′, 3′—didesoxynucleosides and 2′,3′- didehydro-2′,3′- didesoxynucleosides” (Institut Pasteur, priority 2004, dated 2010):
# Substitutions are numbered along the chain they refer to. Names may count otherwise.
# T1: Lactobacillus fermentum N-deoxyribosyl transferase (NTD, LF), native/wild type, SEQ ID No. 2 (Limosilactobacillus fermentum, UniProt Q6YNI5)
# T1 construct: crude extract or purified
# T1 sequence (Q6YNI5 1-168): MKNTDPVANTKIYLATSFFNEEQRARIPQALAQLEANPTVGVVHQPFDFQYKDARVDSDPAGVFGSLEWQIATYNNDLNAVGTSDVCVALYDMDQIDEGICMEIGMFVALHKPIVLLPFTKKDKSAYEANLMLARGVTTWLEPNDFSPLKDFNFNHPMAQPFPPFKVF
# T2: Lactobacillus fermentum N-deoxyribosyl transferase (NTD) variant LFA15T, mutation A15T, SEQ ID No. 4 (Limosilactobacillus fermentum, UniProt Q6YNI5, A15T)
# T2 construct: crude extract or purified
# T2 sequence (Q6YNI5 1-168 A15T): T1 sequence (Q6YNI5 1-168) with A15T
# B1: Lactobacillus fermentum N-deoxyribosyl transferase (NTD, LF), native/wild type, SEQ ID No. 2 (Limosilactobacillus fermentum) (protein)
# chain: T1 sequence (Q6YNI5 1-168)
# notes: crude extract or purified
# B2: Lactobacillus fermentum N-deoxyribosyl transferase (NTD) variant LFA15T, mutation A15T, SEQ ID No. 4 (Limosilactobacillus fermentum; A15T) (protein)
# chain: T1 sequence (Q6YNI5 1-168) with A15T
# notes: crude extract or purified
# Tests used:
# [1] = test system: HIV (human immunodeficiency virus); settings: cited from earlier work
# [2] = target: T1, Lactobacillus fermentum N-deoxyribosyl transferase (NTD, LF), native/wild type, SEQ ID No. 2; assay: Enzymatic activity tests (dT+C, ddT+C and d4T+C reactions), native enzyme LF; format: biochemical; settings: deoxyribosyl donor + C (cytosine)
# Method: (§1) 50 μl of enzymatic extract is added to 200 μl of 100 mM citrate buffer, pH 6.44, in the presence of 3 mM ddU or dU final and of 1 mM C final for the strain PAK9, the whole is incubated at 37° C. The progress of the reaction is monitored by TLC (silica; eluent: MeOH—CH2Cl2 (20/80)). […] The disappearance of the substrates and the formation of the products were also quantified by HPLC analysis. The different products are separated by analytical HPLC with a reversed-phase column (100-5C18) using a flow rate of 1 ml/min and a linear gradient of 5-25% CH3CN in a 10 mM triethyl ammonium acetate buffer at pH 7.5 for 20 minutes.
# (§2) were used as primer in an amplification reaction under standard conditions using the ntd gene of L. fermentum cloned in pSU19 (pLF6) as DNA matrix. The amplification product was digested by the restriction enzymes Nde1 and BamH1 for 2 hours at 37° C., purified on agarose gel and inserted into the plasmid pET24a digested by the same enzymes then the ligation mixture is used to transform the strain β 2033. The plasmid DNA from the colonies was prepared and digested by the enzymes Nde1 and BamH1. […]
# (§3) The cells are then centrifuged for 15′ at 4000 rpm at 4° C., washed in 50 ml of phosphate buffer then the pellet obtained after centrifugation is preserved overnight at −20° C. […] The fractions are then analyzed by SDS-PAGE gel and the enzymatic activity determined. […] The protein concentration is determined by measuring the OD at 280 nm. […]
# (§4) The enzymatic activities of the native and mutant N-deoxyribosyl transferases of L. leichmannii (LL and LL G9S) and of L. fermentum (LF and LFA15T) in the exchange reactions dT+C ? dC+T, ddT+C ? ddC+T and d4T+C ? d4C+T were evaluated starting from crude extracts or purified proteins.
# (§5) These different values were measured according to the protocol described in the literature [P A Kaminski (2002) “Functional cloning, heterologous expression and purification of two different N-deoxyribosyl transferases from Lactobacillus helveticus” J. Biol. Chem; vol. […]
# [3] = target: T2, Lactobacillus fermentum N-deoxyribosyl transferase (NTD) variant LFA15T, mutation A15T, SEQ ID No. 4; assay: Enzymatic activity tests (dT+C, ddT+C and d4T+C reactions), mutated enzyme LFA15T; format: biochemical; settings: mutant LFA15T; deoxyribosyl donor + C (cytosine)
# Method: (§6) The sequencing of the plasmids present in the selected transformants of PAK 9 made it possible to identify a mutation in the sequence (ntd) having the effect of substituting a residue T for the residue A in position 15 in the corresponding protein sequence (SEQ ID No. 2) (mutation called A15T).
# 50 μl of enzymatic extract is added to 200 μl of 100 mM citrate buffer, pH 6.44, in the presence of 3 mM ddU or dU final and of 1 mM C final for the strain PAK9, the whole is incubated at 37° C. The progress of the reaction is monitored by TLC (silica; eluent: MeOH—CH2Cl2 (20/80)). […] The disappearance of the substrates and the formation of the products were also quantified by HPLC analysis. […]
# as §3
# The enzymatic activities of the native and mutant N-deoxyribosyl transferases of L. leichmannii (LL and LL G9S) and of L. fermentum (LF and LFA15T) in the exchange reactions dT+C ? dC+T, ddT+C ? ddC+T and d4T+C ? d4C+T were evaluated starting from crude extracts or purified proteins. […]
# [4] = exchange reaction dT + C (transfer of deoxyribose), specific activity of N-deoxyribosyl transferases; format: biochemical; settings: for specific activity, dT + C: relative, 100% = specific activity of NTD of L. leichmannii (LL) in dT + C, crude extracts or purified proteins
# Method: (§7) The cells are then centrifuged at 4000 rpm for 30 minutes at 4° C., the pellet is resuspended in 10 ml of phosphate buffer (Na2HP04+NaH2PO4) at 50 mM (pH=7.5). After centrifugation, the pellet is resuspended in 1 ml of the same buffer. The cells, preserved in ice, are then subjected to three cycles of 30 s of sonication and 30 s of rest. After centrifugation at 12000 rpm for 2×15 minutes at 4° C., the supernatants are recovered and stored at −20° C.
# as §1
# (§8) The cells are then centrifuged for 15′ at 4000 rpm at 4° C., washed in 50 ml of phosphate buffer then the pellet obtained after centrifugation is preserved overnight at −20° C. The bacterial pellet resuspended in 20 ml of phosphate buffer is then lysed by passage through a French press at 14000 psi. The lysate is centrifuged for 90′ at 50,000 rpm. The supernatant containing the soluble proteins is then precipitated with ammonium sulphate (40% saturation). […] The fractions are then analyzed by SDS-PAGE gel and the enzymatic activity determined. […] The protein concentration is determined by measuring the OD at 280 nm. […]
# as §4
# [5] = exchange reaction ddT + C (transfer of dideoxyribose), specific activity of N-deoxyribosyl transferases; format: biochemical; settings: for specific activity, ddT + C: relative, 100% = specific activity of NTD of L. leichmannii (LL) in dT + C, crude extracts or purified proteins
# Method: as §7, §1, §8, §4
# [6] = exchange reaction d4T + C (transfer of didehydroribose), specific activity of N-deoxyribosyl transferases; format: biochemical; settings: for specific activity, d4T + C: relative, 100% = specific activity of NTD of L. leichmannii (LL) in dT + C, crude extracts or purified proteins
# Method: as §7, §1, §8, §4
# [7] = substrate: Cc1cn([C@H]2C=C[C@@H](CO)O2)c(=O)[nH]c1=O; assay: Enzymatic activity tests (dT+C, ddT+C and d4T+C reactions), native enzyme LF; format: biochemical, Lactobacillus fermentum; settings: other: native LF; deoxyribosyl donor + C (cytosine); 37.0 °C
# Method: as §1
# (§9) were used as primer in an amplification reaction under standard conditions using the ntd gene of L. fermentum cloned in pSU19 (pLF6) as DNA matrix. The amplification product was digested by the restriction enzymes Nde1 and BamH1 for 2 hours at 37° C., purified on agarose gel and inserted into the plasmid pET24a digested by the same enzymes then the ligation mixture is used to transform the strain β 2033. The plasmid DNA from the colonies was prepared and digested by the enzymes Nde1 and BamH1. Those, the sequence of which was correct, were used to transform the strain BL21 (DE3)/plysS (Novagen). The plasmid DNA of the mutant pSU19NLFA15T selected previously was prepared then digested by the enzymes Nde1 and BamH1. The corresponding fragment Nde1-BamH1 was then inserted into the plasmid pET24a digested by the same enzymes in order to produce the expression plasmid pETLFA15T useful to the expression of the mutated protein. A strain of E. coli transformed using the plasmid pETLFA15T was deposited at the CNCM (INSTITUT PASTEUR, 25 rue du Docteur Roux, F-75724 PARIS Cedex 15) on 22 Mar. 2004 under accession number I-3192. The overproduction of the two N-deoxyribosyl transferases, native and mutated, was obtained from cultures of this strain in 500 ml of LB medium supplemented with Km and Cm. These cultures were induced at an OD600=0.6 by the addition of IPTG (0.4 mM), the incubation being continued for 2 hours 30 minutes at 37° C.
# (§10) The cells are then centrifuged for 15′ at 4000 rpm at 4° C., washed in 50 ml of phosphate buffer then the pellet obtained after centrifugation is preserved overnight at −20° C. The bacterial pellet resuspended in 20 ml of phosphate buffer is then lysed by passage through a French press at 14000 psi. The lysate is centrifuged for 90′ at 50,000 rpm. The supernatant containing the soluble proteins is then precipitated with ammonium sulphate (40% saturation). The precipitate obtained after centrifugation at 13900 rpm (20,000 g) for 30′ at 4° C. is resuspended in 1 ml of 100 mM phosphate buffer, pH 7.5, 1.5 M NaCl, then deposited on a Sephacryl S200 gel filtration column (Amersham-Pharmacia). The fractions are then analyzed by SDS-PAGE gel and the enzymatic activity determined. […] The protein concentration is determined by measuring the OD at 280 nm.
# (§11) The measurement of the enzymatic activities is carried out as described in paragraph 4.2.
# as §4
# (§12) These different values were measured according to the protocol described in the literature [P A Kaminski (2002) “Functional cloning, heterologous expression and purification of two different N-deoxyribosyl transferases from Lactobacillus helveticus” J. Biol. Chem; vol. 277; 14400-14407]. […] The activities are increased respectively by 60% and 54%.
# [8] = substrate: Cc1cn([C@H]2CC[C@@H](CO)O2)c(=O)[nH]c1=O; assay: as above; format: biochemical, Lactobacillus fermentum; settings: other: native LF; deoxyribosyl donor + C (cytosine); 37.0 °C
# Method: as §1, §9, §10, §11, §4, §12
# [9] = substrate: Cc1cn([C@H]2C[C@H](O)[C@@H](CO)O2)c(=O)[nH]c1=O; assay: as above; format: biochemical, Lactobacillus fermentum; settings: other: native LF; deoxyribosyl donor + C (cytosine); 37.0 °C
# Method: as §1, §9, §10, §11, §4, §12
# [10] = enzymatic activity test (kinetic constants), ddT+C reaction; format: biochemical
# Method: as §12
# [11] = enzymatic activity test (kinetic constants), d4T+C reaction; format: biochemical
# Method: as §12
# [12] = substrate: Cc1cn([C@H]2CC[C@@H](CO)O2)c(=O)[nH]c1=O; assay: Enzymatic activity tests (dT+C, ddT+C and d4T+C reactions), mutated enzyme LFA15T; format: biochemical, Lactobacillus fermentum; settings: other: mutant LFA15T; deoxyribosyl donor + C (cytosine); 37.0 °C
# Method: as §6, §1
# as §2, with “BamH1. Those, the sequence of which was correct, were used to transform the strain BL21 (DE3)/plysS (Novagen). The plasmid DNA of the mutant pSU19NLFA15T selected previously was prepared then digested by the enzymes Nde1 and BamH1. The corresponding fragment Nde1-BamH1 was then inserted into the plasmid pET24a digested by the same enzymes in order to produce the expression plasmid pETLFA15T useful to the expression of the mutated protein.” for “BamH1.”
# as §3, §4, §5
# [13] = substrate: Cc1cn([C@H]2C[C@H](O)[C@@H](CO)O2)c(=O)[nH]c1=O; assay: as above; format: biochemical, Lactobacillus fermentum; settings: other: mutant LFA15T; deoxyribosyl donor + C (cytosine); 37.0 °C
# Method: as §6, §1
# as §2, with “BamH1. Those, the sequence of which was correct, were used to transform the strain BL21 (DE3)/plysS (Novagen). The plasmid DNA of the mutant pSU19NLFA15T selected previously was prepared then digested by the enzymes Nde1 and BamH1. The corresponding fragment Nde1-BamH1 was then inserted into the plasmid pET24a digested by the same enzymes in order to produce the expression plasmid pETLFA15T useful to the expression of the mutated protein.” for “BamH1.”
# as §3, §4, §5
# [14] = mutant LFA15T versus native enzyme LF
# [15] = catalytic effectiveness Kcat/Km
# [16] = mutated enzyme versus native enzyme
molecule,measurement,setting,value
"OC[C@@H]1CC[C@H](n2cnc3c(O)ncnc32)O1 [ddl, 2′,3′-dideoxyinosine]",inhibition of replication of HIV,[1],effectively inhibit the replication of HIV
"Cc1cn([C@H]2C=C[C@@H](CO)O2)c(=O)[nH]c1=O [d4T, reference compound]",Kcat,[2],0.56 µmol/s/µg
Cc1cn([C@H]2CC[C@@H](CO)O2)c(=O)[nH]c1=O [ddT],Kcat,[2],0.038 µmol/s/µg
same,Kcat,[3],0.156 µmol/s/µg
"Nc1ncnc2c1ncn2[C@H]1CC[C@@H](CO)O1 [ddA, 2′,3′-dideoxyadenosine]",inhibition of replication of HIV,[1],effectively inhibit the replication of HIV
Cc1cn([C@H]2C[C@H](O)[C@@H](CO)O2)c(=O)[nH]c1=O [dT],Kcat,[2],0.665 µmol/s/µg
same,Kcat,[3],0.242 µmol/s/µg
B1,"specific activity, dT + C",[4],76.5%
same,"specific activity, ddT + C",[5],0.9%
same,"specific activity, d4T + C",[6],2.1%
same,Km,[7],1250 µM
same,Vmax,[7],24 µmol/s
same,Km,[8],80 µM
same,Vmax,[8],5.7 µmol/s
same,Km,[9],124 µM
same,Vmax,[9],6.65 µmol/s
B2,"factor by which activity is reduced, transfer of deoxyribose",[4]; [14],7
same,"specific activity, dT + C",[4],10.7%
same,"factor by which activity is increased, transfer of dideoxyribose",[5]; [14],3
same,"specific activity, ddT + C",[5],2.5%
same,"factor by which activity is increased, transfer of didehydroribose",[6]; [14],35
same,"specific activity, d4T + C",[6],73.5%
same,"times more effective than native enzyme LF, ddT+X exchange",[10]; [15],60 times
same,increase of catalytic activity on ddT,[10]; [16],54%
same,"times more effective than native enzyme LF, d4T+X exchange",[11]; [15],7.5 times
same,increase of catalytic activity on d4T,[11]; [16],60%
same,Km,[12],53 µM
same,Vmax,[12],7.8 µmol/s
same,Km,[13],371 µM
same,Vmax,[13],9.7 µmol/s
